What was measured:
Test in all cases: cell-based or functional assay
[1] = target: HIV-1 Env of pseudovirus NIH-010_1054.07.TC4.1499 (HIV-1)
[2] = target: HIV-1 Env of isolate NIH-082_X1193 c1 (HIV-1)
[3] = target: HIV-1 Env of NIH-057_MS208.A1 (HIV-1)
[4] = target: HIV-1 Env of NIH-056_Q168ENVa2 (HIV-1)
[5] = target: HIV-1 Env of NIH-049_CNE20 (HIV-1)
[6] = target: HIV-1 Env of pseudovirus NIH-095_6480.v4.c25 (HIV-1)
[7] = target: HIV-1 Env of NIH-045_7030102001E5(Rev.) (HIV-1)
[8] = target: HIV-1 Env of NAC_92RW020 (HIV-1)
[9] = target: HIV-1 Env of pseudovirus NAC_MN (HIV-1) (UniProt P05877)
[10] = target: HIV-1 Env of pseudovirus NIH-064_0260.v5.c1 (HIV-1)
[11] = target: HIV-1 Env of NIH-063_0330.v4.c3 (HIV-1)
[12] = target: HIV-1 Env of pseudovirus NIH-014_6244.13.B5.4567 (HIV-1)
[13] = target: HIV-1 Env of pseudovirus NIH-084_X1254 c3 (clade G) (HIV-1)
[14] = target: HIV-1 Env of NAC_89.6 (HIV-1)
[15] = target: HIV-1 Env of pseudovirus NIH-086_X2131 C1 B5 (clade G) (HIV-1)
[16] = target: HIV-1 Env of pseudovirus NIH-048_CNE19 (HIV-1)
[17] = target: HIV-1 Env of NIH-075_CNE8 (HIV-1)
[18] = target: HIV-1 Env of NIH-031_HIV-16055.2.3 (HIV-1)
[19] = target: HIV-1 Env of NIH-055_CNE58 (HIV-1)
[20] = target: HIV-1 Env of pseudovirus NAC_YU2 (HIV-1) (UniProt P35961)
[21] = target: HIV-1 Env of NAC_IAVIC22 (HIV-1)
[22] = target: HIV-1 Env of NIH-076_CNE5 (HIV-1)
[23] = target: HIV-1 Env of NAC_WITO.33 (HIV-1)
[24] = target: HIV-1 Env of pseudovirus NAC_WITO.33 (HIV-1)
[25] = target: HIV-1 Env of NIH-026_ZM135M.PL10a (HIV-1)
[26] = target: HIV-1 Env of pseudovirus NIH-087_P1981 C5 3 (clade G) (HIV-1)
[27] = target: HIV-1 Env of pseudovirus NIH-031_HIV-16055.2.3 (HIV-1)
[28] = target: HIV-1 Env of NIH-020_ZM197M.PB7 (HIV-1)
[29] = target: HIV-1 Env of NIH-043_ZM249M.B10 (HIV-1)
[30] = target: HIV-1 Env of pseudovirus NAC_REJO.67 (HIV-1)
[31] = target: HIV-1 Env of NAC_ADA (HIV-1)
[32] = target: HIV-1 Env of NAC_94UG103 (HIV-1)
[33] = target: HIV-1 Env of pseudovirus NIH-001_6535.3 (HIV-1)
[34] = target: HIV-1 Env of pseudovirus NIH-085_X2088 c9 (clade G) (HIV-1)
[35] = target: HIV-1 Env of pseudovirus NIH-094_3817.v2.c59 (HIV-1)
[36] = target: HIV-1 Env of NIH-001_6535.3 (HIV-1)
[37] = target: HIV-1 Env of NIH-003_SC422661.8 (HIV-1)
[38] = target: HIV-1 Env of pseudovirus NAC_JRFL (HIV-1)
[39] = target: HIV-1 Env of pseudovirus NAC_SS1196.1 (HIV-1)
[40] = target: HIV-1 Env of pseudovirus NIH-106_T250.4 (HIV-1)
[41] = target: HIV-1 Env of NIH-117_T278.5 (HIV-1)
[42] = target: HIV-1 Env of NIH-017_Du156.12 (HIV-1)
[43] = target: HIV-1 Env of NIH-096_6952.v1.c20 (HIV-1)
[44] = target: HIV-1 Env of NIH-099_3301.v1.c24 (HIV-1)
[45] = target: HIV-1 Env of pseudovirus NIH-046_1394C9G1(Rev.) (HIV-1)
[46] = target: HIV-1 Env of NIH-044_ZM247F.F7 (HIV-1)

Question: What does the source list for 4E10 (antibody)?
Answer: neutralization IC50 [1]: 1.35 µg/mL; IC80 (µg/ml), TZM-bl pseudovirus neutralization [2]: 1.43 µg/mL; IC80 neutralization [3]: 2.86 µg/mL; IC80 neutralization [4]: 15.1 µg/mL; IC80 neutralization [5]: 1.58 µg/mL; neutralization IC50 [6]: 0.561 µg/mL; IC80 neutralization [7]: 15.7 µg/mL; IC80 neutralization [8]: 9.61 µg/mL; neutralization IC50 [9]: 0.005 µg/mL; neutralization IC50 [10]: 0.227 µg/mL; IC80 neutralization [11]: 4.17 µg/mL; neutralization IC50 [12]: 0.077 µg/mL; IC50 (µg/ml), TZM-bl cell neutralization assay, pseudovirus [13]: 2.88 µg/mL; IC80 neutralization [14]: 10.9 µg/mL; IC50 (µg/ml), TZM-bl cell neutralization assay, pseudovirus [15]: 0.194 µg/mL; neutralization IC50 [16]: 0.31 µg/mL; IC80 neutralization [17]: 0.27 µg/mL; IC80 neutralization [18]: 6.57 µg/mL; IC80 neutralization [19]: 2.24 µg/mL; neutralization IC50 [20]: 15.9 µg/mL; IC80 neutralization [21]: 6.11 µg/mL; IC80 neutralization [22]: 5.9 µg/mL; IC80 neutralization [23]: 1.82 µg/mL; neutralization IC50 [24]: 0.435 µg/mL; IC80 neutralization [25]: 0.936 µg/mL; IC50 (µg/ml), TZM-bl cell neutralization assay, pseudovirus [26]: 0.099 µg/mL; neutralization IC50 [27]: 1.59 µg/mL; IC80 neutralization [28]: 1.08 µg/mL; IC80 neutralization [29]: 4.55 µg/mL; neutralization IC50 [30]: 1.87 µg/mL; IC80 neutralization [31]: 3.34 µg/mL; IC80 neutralization [32]: 7.48 µg/mL; neutralization IC50 [33]: 0.519 µg/mL; IC50 (µg/ml), TZM-bl cell neutralization assay, pseudovirus [34]: > 50 µg/mL; neutralization IC50 [35]: 0.417 µg/mL; IC80 neutralization [36]: 3.29 µg/mL; IC80 neutralization [37]: 11.1 µg/mL; neutralization IC50 [38]: 17.8 µg/mL; neutralization IC50 [39]: 0.99 µg/mL; neutralization IC50 [40]: 0.756 µg/mL; IC80 neutralization [41]: 6.03 µg/mL; IC80 neutralization [42]: 0.447 µg/mL; IC80 neutralization [43]: 3.5 µg/mL; IC80 neutralization [44]: > 50 µg/mL; neutralization IC50 [45]: 2.58 µg/mL; IC80 neutralization [46]: 7.5 µg/mL

Question: Which results are given for PGZL1 (antibody)?
Answer: neutralization IC50 [1]: 5.15 µg/mL; IC80 (µg/ml), TZM-bl pseudovirus neutralization [2]: 21.3 µg/mL; IC80 neutralization [3]: 45.6 µg/mL; IC80 neutralization [4]: > 50 µg/mL; IC80 neutralization [5]: 9.5 µg/mL; neutralization IC50 [6]: 15 µg/mL; IC80 neutralization [7]: > 50 µg/mL; IC80 neutralization [8]: > 50 µg/mL; neutralization IC50 [9]: 0.023 µg/mL; neutralization IC50 [10]: > 50 µg/mL; IC80 neutralization [11]: > 50 µg/mL; neutralization IC50 [12]: 1.31 µg/mL; IC50 (µg/ml), TZM-bl cell neutralization assay, pseudovirus [13]: 45.5 µg/mL; IC80 neutralization [14]: > 50 µg/mL; IC50 (µg/ml), TZM-bl cell neutralization assay, pseudovirus [15]: 0.885 µg/mL; neutralization IC50 [16]: 3.12 µg/mL; IC80 neutralization [17]: 0.945 µg/mL; IC80 neutralization [18]: 42.6 µg/mL; IC80 neutralization [19]: 14.5 µg/mL; neutralization IC50 [20]: > 50 µg/mL; IC80 neutralization [21]: > 50 µg/mL; IC80 neutralization [22]: > 50 µg/mL; IC80 neutralization [23]: 15.1 µg/mL; neutralization IC50 [24]: 3.56 µg/mL; IC80 neutralization [25]: 2.08 µg/mL; IC50 (µg/ml), TZM-bl cell neutralization assay, pseudovirus [26]: 1.39 µg/mL; neutralization IC50 [27]: 10.9 µg/mL; IC80 neutralization [28]: 7.66 µg/mL; IC80 neutralization [29]: 25.6 µg/mL; neutralization IC50 [30]: 10.7 µg/mL; IC80 neutralization [31]: 21.8 µg/mL; IC80 neutralization [32]: > 50 µg/mL; neutralization IC50 [33]: 1.42 µg/mL; IC50 (µg/ml), TZM-bl cell neutralization assay, pseudovirus [34]: > 50 µg/mL; neutralization IC50 [35]: 20.1 µg/mL; IC80 neutralization [36]: 4.69 µg/mL; IC80 neutralization [37]: > 50 µg/mL; neutralization IC50 [38]: > 50 µg/mL; neutralization IC50 [39]: 5.4 µg/mL; neutralization IC50 [40]: 13.9 µg/mL; IC80 neutralization [41]: > 50 µg/mL; IC80 neutralization [42]: 2.5 µg/mL; IC80 neutralization [43]: 4.7 µg/mL; IC80 neutralization [44]: > 50 µg/mL; neutralization IC50 [45]: 7.87 µg/mL; IC80 neutralization [46]: 48.2 µg/mL

Question: For VRC01 (antibody), which neutralization IC50 [1] is on record?
Answer: 0.909 µg/mL

Question: What about the IC80 (µg/ml), TZM-bl pseudovirus neutralization [2] of the same substance?
Answer: 0.408 µg/mL

Question: What about the IC80 neutralization [3] of the same substance?
Answer: 0.252 µg/mL

Question: And the IC80 neutralization [4]?
Answer: 0.218 µg/mL

Question: And the IC80 neutralization [5]?
Answer: 20.2 µg/mL

Question: And the neutralization IC50 [6]?
Answer: 0.014 µg/mL

Question: What about the IC80 neutralization [7] of the same substance?
Answer: 1.49 µg/mL

Question: What about the IC80 neutralization [8] of the same substance?
Answer: 0.811 µg/mL

Question: And the neutralization IC50 [9]?
Answer: 0.01 µg/mL

Question: What about the neutralization IC50 [10] of the same substance?
Answer: 0.124 µg/mL

Question: And the IC80 neutralization [11]?
Answer: 0.13 µg/mL

Question: And the neutralization IC50 [12]?
Answer: 0.045 µg/mL

Question: What about the IC50 (µg/ml), TZM-bl cell neutralization assay, pseudovirus [13] of the same substance?
Answer: 0.039 µg/mL

Question: And the IC80 neutralization [14]?
Answer: 3.3 µg/mL

Question: What about the IC50 (µg/ml), TZM-bl cell neutralization assay, pseudovirus [15] of the same substance?
Answer: 0.073 µg/mL

Question: What about the neutralization IC50 [16] of the same substance?
Answer: 0.127 µg/mL

Question: What about the IC80 neutralization [17] of the same substance?
Answer: 0.514 µg/mL

Question: What about the IC80 neutralization [18] of the same substance?
Answer: 0.206 µg/mL

Question: And the IC80 neutralization [19]?
Answer: 0.331 µg/mL

Question: What about the neutralization IC50 [20] of the same substance?
Answer: 0.123 µg/mL

Question: And the IC80 neutralization [21]?
Answer: 1.37 µg/mL

Question: And the IC80 neutralization [22]?
Answer: 0.238 µg/mL

Question: What about the IC80 neutralization [23] of the same substance?
Answer: 0.228 µg/mL

Question: What about the neutralization IC50 [24] of the same substance?
Answer: 0.055 µg/mL

Question: And the IC80 neutralization [25]?
Answer: 0.379 µg/mL

Question: What about the IC50 (µg/ml), TZM-bl cell neutralization assay, pseudovirus [26] of the same substance?
Answer: 0.203 µg/mL

Question: What about the neutralization IC50 [27] of the same substance?
Answer: 0.053 µg/mL

Question: What about the IC80 neutralization [28] of the same substance?
Answer: 0.682 µg/mL

Question: What about the IC80 neutralization [29] of the same substance?
Answer: 0.275 µg/mL

Question: And the neutralization IC50 [30]?
Answer: 0.106 µg/mL

Question: And the IC80 neutralization [31]?
Answer: 1.31 µg/mL

Question: And the IC80 neutralization [32]?
Answer: 0.752 µg/mL

Question: What about the neutralization IC50 [33] of the same substance?
Answer: 0.946 µg/mL

Question: And the IC50 (µg/ml), TZM-bl cell neutralization assay, pseudovirus [34]?
Answer: > 50 µg/mL

Question: What about the neutralization IC50 [35] of the same substance?
Answer: > 50 µg/mL

Question: What about the IC80 neutralization [36] of the same substance?
Answer: 3.7 µg/mL

Question: What about the IC80 neutralization [37] of the same substance?
Answer: 0.481 µg/mL

Question: And the neutralization IC50 [38]?
Answer: 0.141 µg/mL

Question: And the neutralization IC50 [39]?
Answer: 0.166 µg/mL

Question: What about the neutralization IC50 [40] of the same substance?
Answer: > 50 µg/mL

Question: And the IC80 neutralization [41]?
Answer: > 50 µg/mL

Question: What about the IC80 neutralization [42] of the same substance?
Answer: 0.23 µg/mL

Question: What about the IC80 neutralization [43] of the same substance?
Answer: 0.097 µg/mL

Question: And the IC80 neutralization [44]?
Answer: 0.463 µg/mL

Question: What about the neutralization IC50 [45] of the same substance?
Answer: 0.28 µg/mL

Question: And the IC80 neutralization [46]?
Answer: 0.945 µg/mL

Reference: patent US20240124560A1
